According to publication PMC8834124, “Enzymatic Preparation of Gentiooligosaccharides by a Thermophilic and Thermostable β-Glucosidase at a High Substrate Concentration” (Foods, 2022):

Columns and labels:
Experiment in all cases: purified protein
Format in all cases: biochemical, Thermotoga sp. KOL6
[1] = tested on: O=[N+]([O-])c1ccc(O[C@@H]2O[C@H](CO)[C@@H](O)[C@H](O)[C@H]2O)cc1
[2] = tested on: OC[C@H]1O[C@@H](O[C@H]2[C@H](O)[C@@H](CO)OC(O)[C@@H]2O)[C@H](O)[C@@H](O)[C@@H]1O
[3] = tested on: OC[C@H]1O[C@@H](O[C@H]2C(O)O[C@H](CO)[C@@H](O)[C@@H]2O)[C@H](O)[C@@H](O)[C@@H]1O
[4] = tested on: OC[C@H]1O[C@@H](OC[C@H]2OC(O)[C@H](O)[C@@H](O)[C@@H]2O)[C@H](O)[C@@H](O)[C@@H]1O

## β-glucosidase TsBgl1 (Thermotoga sp. KOL6)
[1]
  Km: 240 µM
  kcat: 124 s⁻¹
  kcat/Km: 509000 M⁻¹ s⁻¹
[2]
  Km: 2170 µM
  kcat: 295 s⁻¹
  kcat/Km: 136000 M⁻¹ s⁻¹
[3]
  Km: 3950 µM
  kcat: 218 s⁻¹
  kcat/Km: 55300 M⁻¹ s⁻¹
[4]
  Km: 3680 µM
  kcat: 240 s⁻¹
  kcat/Km: 65200 M⁻¹ s⁻¹
